In publication PMC8191756:

Tests used:
SENP1 = SENP1 (UniProt Q9P0U3); assay: co-IP; settings: reference: wild type
UBC9 = UBC9 (UniProt P63279); assay: co-IP, Strep-ALKBH5 with Flag-UBC9; settings: reference: wild type

## ALKBH5 (from UniProt Q6P6C2) S87A
SENP1; sites S87
  binding against the reference: stronger
UBC9; sites S87
  binding against the reference: weaker

## ALKBH5 (from UniProt Q6P6C2) S325A
SENP1; sites S325
  binding against the reference: stronger
UBC9; sites S325
  binding against the reference: weaker
